The values that follow come from IntAct's records for PubMed 17380122.

B1: Regulator of G-protein signaling 12 (Mus musculus), Q8CGE9 (parent)
chain: MYRAGEPGKRQPGPAPPRVRSVEVARGRAGYGFTLSGQAPCVLSCVMRGSPADFVGLRAGDQILAINEINVKKASHEDVVKLIGKCSGVLHMVIAEGTSHVESCSSDEEGGLYEGKGWLRPKLDSKALGINRAERVVEEVQSGGIFNMIFESSSLCASGPEPLKLKQRSLSESAALRLDAGQAGLCAPHPSMLSKEDISKVINDDSVFTVGLDSHDDFGLDASILNVAMVVGYLGSIELPSTSSNLEHDSLQAIRGCMRRLRAEQKIHSLVTMKVMHDCVQLVTDRAGVVAEYPAEKLAFSAVCPDDRRFFGLVTMQTNDDGGLAQEDEGALRTSCHVFMVDPDLFHHKIHQGIARRFGFACTADPDTSGCLEFPASSLPVLQFISVLYRDMGELIEGVRARAFLDGDADAHQNNSTSSNSDSGIGNFNQEEKSNRVLVVDLGGGSSRHGQGSSPGWESGGGRGSQPWSAPWNGAFCHDSEAGSPLETSPNTDRFWDLTKHSGPVSHMEVPPATLRSSIPPSKRGAAGSSCGFNQRWLPVHVLQEWQCGHASDQESYTDSTDGWSSVNCGTLPPPMSKIPADRYRVEGSFAQAPLSTQKRDWSRKAFGMQNLFGPHRNVRKTKEDKKSSKLGRGVALAQTSQRTSARRSFGRSRRFSITRSLDDLESATVSDGELTGADLKDCISNNSLSSNASLPSVQSCRRLRERRVASWAVSFERLLQDPVGVRYFSDFLRKEFSEENILFWQACECFSHVPAHDKKELSYRAREIFSKFLCSKATTPVNIDSQAQLADDILNAPHPDMFKEQQLQIFNLMKFDSYTRFLKSQLYQECVLAEVEGRTLPDSQQVPSSPASKHSISSDHSNVSTPKKLSGKSKSGRSLNEDVGEEDSEKKRRGAFFSWSRSRSTGRSQKKKDHGDHAHDAPHANGGLCRRESQGSVSSAGSLDLSEACRTSALEKDKAAKHCCVHLPDGTSCVVAVKSGFSIKEILSGLCERHGINGAAVDLFLVGGDKPLVLHQDSSILATRDLRLEKRTLFRLDLVPINRSVGLKAKPTKPVTEVLRPVVAKYGLDLGSLLVRLSGEKEPLDLGAPISSLDGQRVILEERDPSRGKVSTDKQKGAPVKQNSAVNSSPRNHLAMGEERTLGKSNSIKIRGENGKSARDPRLSKREESIAKIGKKKYQKINLDEAEEFFELISKAQSNRADDQRGLLRKEDLVLPEFLRLPAGSSELALSSPPPVKGYSKRAVTGHGQEGAAQTEESYSDSPATSPASAQSPCSAYSPGSAHSPGSAHSTPGPPGTTQPGEKPTKPSCVSMVQEGTTQAWRRLSPEMEAGGIQTVEDEQVADLTLMGEGDISSPNSTLLPPPPTPQDTPGPPRPGTSRF

Variants of B1 are the subject of the first test. Particulars: with rash_rat Hras.
For the variant H995L, the “effect of a mutation on the interaction” value was “decreasing interaction”.

In the next test the parent is B1. The note with it: with rasn_rat Nras.
H995L: the “effect of a mutation on the interaction” value was “decreasing interaction”.
